{
  "source": "the nanobody polyreactivity screen of Harvey et al. (2022)",
  "data": [
    {"assay": "yeast display, Sf9 membrane polyspecificity reagent, FACS + sequencing; frameworks hold sequencing errors", "summary_of_the_method": "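After 36–48 hours of galactose induction, yeast (Saccharomyces cerevisiae BJ5465) displaying a synthetic nanobody library were stained at 4 °C for 1 hour with 10% biotinylated, detergent-solubilized Sf9 membrane reagent. Streptavidin microbeads enriched the stained cells before FACS sorting into low and high (top ~1%) gates on anti-HA and streptavidin fluorescence. Each clone's polyreactivity label reflects its gate of origin.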", "values": [
      {"sequence": "QVQLEESGGGLVQAGGSLRLSCAASGRIFYTYVMGWYRQAPEKERELVAAITGGGSKYYAYSVKGRFTISRDNAKNTVYLQMNSLKPEDTAVSYCAKRSYGDRDERYDSWGQGTQVTVSS", "polyreactivity (PSR sort gate)": "low polyreactivity"},
      {"sequence": "QVQLEESGGGLVQAGGSLRLSCAASGRILVKNTMGWYRQAPGKERELVAAITSGGNTYYADSVKGRFTISRDNAKNTVYLQMNSLKPEDTAVYYCNKVSNRSGYYWGQGTQVTVSS", "polyreactivity (PSR sort gate)": "high polyreactivity"},
      {"sequence": "QVQLEESGGGLVQAGGSLRLSCAASGRTFDRYAMGWYRQAPGKERELVAAITWSGGRTYYADSVKGRFTISRVNAKNTVYLQMNSLKPEDTAVYYCAADNSYRGYHSPYDYWGQGTQVTVSS", "polyreactivity (PSR sort gate)": "low polyreactivity"},
      {"sequence": "QVQLEESGGGLVQAGGSLRLSCAASGRTFGWNGMGWYRQAPGKERELVAVISSGGSTKYADSVKGRFTISRDNAKNTVYLQMNSLKPEDTALYYCAKDWVRSGRRNMDYWGQGTQVTFSS", "polyreactivity (PSR sort gate)": "low polyreactivity"},
      {"sequence": "QVQLEESGGGLVQAGGSLRLSCAASGRTFNRYVMGWYRQAPGKERELVAAITWRGGSTYYADSVKGRFTISRDNAKTSVYLQMNSLKPEDTAVYYCAARYSGGYSVDAFDYWGQGTQVTVSS", "polyreactivity (PSR sort gate)": "high polyreactivity"},
      {"sequence": "QVQLEESGGGLVQAGGSLRLSCAASGRTFSRNAMGWYIQAPGKERELVAAISQRGVSTYYADSVKGRFTISRDNAMNTVYLQMNSLKPEDTAVYYCNTRGTYRYDYWGQGTQVTVSS", "polyreactivity (PSR sort gate)": "low polyreactivity"},
      {"sequence": "QVQLEESGGGLVQAGGSLRLSCAASGRTFVLNVMGWYRQAPGKERELVATISGVGSTNYADSVKGRFTISRDNAKNTVYLQMNSLKPEDTAVYYCAKDPHVGRWWDLYSPYYSWGQGTQVTVSS", "polyreactivity (PSR sort gate)": "low polyreactivity"},
      {"sequence": "QVQLEESGGGLVQAGGSLRLSCAASGRTFVPYAMGWYRQAPGKERELVAAINSGGSTYYADSVKGRFTISRDNAKNTVYLQMNSLKPEDTAVYYCAAEYWNSRFSYAYGYWGQGTQVTVSS", "polyreactivity (PSR sort gate)": "high polyreactivity"},
      {"sequence": "QVQLEESGGGLVQAGGSLRLSCAASGRTFVRYAMGWYRQATGNERELVAAFSLRGGRTYYADSVKGRFTISRDNAKNTVYLQMNSLKPEDTAVYYCNSRYYIQREYDYWGQGNQVTVSS", "polyreactivity (PSR sort gate)": "high polyreactivity"},
      {"sequence": "QVQLEESGGGLVQAGGSLRLSCAASGRTFYPYAMGWYRQAPGKEREFVARITWSGGRTYYADSVKGRFTISRDNAKNTVYLQMNSLKPEDTAVYYCAARGHDAVIATRYDYWGQGTQVTVSS", "polyreactivity (PSR sort gate)": "high polyreactivity"},
      {"sequence": "QVQLEESGGGLVQAGGSLRLSCAASGRTIQDNAMGWYRQAHGKERELVAAIRDNGGSTYYADSVKGRFTISRDNAKNTVFLQMNSLKPEDTAVYYCAADQGTGSYDYWGQGTQVTVSS", "polyreactivity (PSR sort gate)": "low polyreactivity"},
      {"sequence": "QVQLEESGGGLVQAGGSLRLSCAASGRTSYSNAMGSYRQAPGQERELVAGITYRGGSTYYADSVKGRFTISRDNAKNTVYLQMNSLKPEDTAVYDCAVKYSWQSRFNYWGQGTQVTVSS", "polyreactivity (PSR sort gate)": "high polyreactivity"},
      {"sequence": "QVQLEESGGGLVQAGGSLRLSCAASGSIFEYYAMGWYRPAPGKERELVAAISSGGPTYYADSVKGRFTISRDNAKNTVYLQMNSLKPEDTAVYYCNADLWYPDYAYWGQGTQLTVSS", "polyreactivity (PSR sort gate)": "low polyreactivity"},
      {"sequence": "QVQLEESGGGLVQAGGSLRLSCAASGSIFFWYAMGWSRQAPGKERELVAAISSSGSTNYADSVKGRFTISRDNAKNTVYLQMNSLKPEDTAVYYCATRKYVYYPVQYEFWGQGTQVTVSS", "polyreactivity (PSR sort gate)": "high polyreactivity"},
      {"sequence": "QVQLEESGGGLVQAGGSLRLSCAASGSIFGLYAMGWYRQAPGKERELVAAINQSGGSTSYADSVKGRFTISRDNAKNTVYLQMNSLKPEDTAVYYCNRVRLNTEGFDYWGQGTQVTVSS", "polyreactivity (PSR sort gate)": "low polyreactivity"},
      {"sequence": "QVQLEESGGGLVQAGGSLRLSCAASGSIFGYNAMGWYRQAPGKERELVAAINVDGGRTYYADSVKGRFTISRDNAKNTVYLQMNSLTPEDTAVFYCAAAYRLQVGRREYWGQGTQVTVSS", "polyreactivity (PSR sort gate)": "high polyreactivity"},
      {"sequence": "QVQLEESGGGLVQAGGSLRLSCAASGSIFGYYAMGWYRKATGKEREFVADINSRDGGTYYADSVKGRFTISRDNAKNTVYLQMNSLKPEDTAVYYCAAPYYAAWVAVAIEYDYWGQGTQVTVSS", "polyreactivity (PSR sort gate)": "low polyreactivity"},
      {"sequence": "QVQLEESGGGLVQAGGSLRLSCAASGSIFRRNVMGWYRQAPGKERELVADINYSGGSTFYADSVKGRFTISRDNAKNTVYLQMNSLKPEDTAVYYCKSSPYREKHGYWGQGTQVTVSS", "polyreactivity (PSR sort gate)": "low polyreactivity"},
      {"sequence": "QVQLEESGGGLVQAGGSLRLSCAASGSIFRWNAMGWSRQAPGKERELVAAISSGTSTNYADSVKGRFTISRDNAKNTVYVQMNSQKPEDTAVYYCAARGRKNQRRYGYWGQGTQVTVSS", "polyreactivity (PSR sort gate)": "low polyreactivity"},
      {"sequence": "QVQLEESGGGLVQAGGSLRLSCAASGSIFRYYAMGWYRQAPGKERELVAVITRGGSTYYADSVKGRFTISRDNAKNTVYLQMNSLKPEDTAVYYCAADYWPAGLDRGYWGQGTQVTVSS", "polyreactivity (PSR sort gate)": "low polyreactivity"},
      {"sequence": "QVQLEESGGGLVQAGGSLRLSCAASGSIFVGYAMGWYRQAPGKEREFVAAINYRGGSTFYADSVKGRFTISRDNAKNTVYLQMNSLKPEDTAVYYCAARYSGNRGVPKGYRYNYWGQGTQVTVSS", "polyreactivity (PSR sort gate)": "low polyreactivity"},
      {"sequence": "QVQLEESGGGLVQAGGSLRLSCAASGSIFVGYDMGWYRQAPGKVWELVAAITSSGVGSTYYADSVKGRFTISRDNAKNTVYLQMNSLKPEDTAVYYCAARTSLWWFLKYDYWGEGTQVTVSS", "polyreactivity (PSR sort gate)": "low polyreactivity"},
      {"sequence": "QVQLEESGGGLVQAGGSLRLSCAASGSIFYSNAMGWYRQAPGKERELVAAISVSGVSTYYADSVKGRFTISRDNAKNTVYLQMNSLKPEDTAVYYCAAQYVTRGLYLVAFFSYDYWGQGTQVTVSS", "polyreactivity (PSR sort gate)": "low polyreactivity"},
      {"sequence": "QVQLEESGGGLVQAGGSLRLSCAASGSILRVNVMVWYRQAPGKERELVAAITSGGRTYYADSVKGRFTISRDNAKNTVYLQMNSLIQEDTAVYYCAAKFFRNTYSYGMDYWGQGTQVTVSS", "polyreactivity (PSR sort gate)": "high polyreactivity"},
      {"sequence": "QVQLEESGGGLVQAGGSLRLSCAASGSISVRYTMGSYRQAPGKERELVAGISRSGGTTYADSVKGRFTISRDNGKNTVYLQMNSLKQEDTAVYYCAAELRRGSGRSYKGYYYWGQGTQVSVSS", "polyreactivity (PSR sort gate)": "low polyreactivity"},
      {"sequence": "QVQLEESGGGLVQAGGSLRLSCAASGSISYNNVMGWYRQAPGKERELVARIRSGGSTYYADSVKGRFTISRDNAKNTVYLLMNSLKQEDTAVYYCAARTKRQAGSYGYWGQGTQVTVSS", "polyreactivity (PSR sort gate)": "high polyreactivity"},
      {"sequence": "QVQLEESGGGLVQAGGSLRLSCAASGSTFCYYPMGWYRQAPGKEREFVAAISSSGGSTYYADYVKGRFTISRDNAKNTVYFQMNSLKPEDTAVYYCARVGFPGFYWGQGTEVTVSS", "polyreactivity (PSR sort gate)": "high polyreactivity"},
      {"sequence": "QVQLEESGGGLVQAGGSLRLSCAASGSTFEGYAMGWYRQAPGKERELVAVISSGSITKYADSVKGRFTISRDNAKNTVFLQINSLKPEDTAVYYCARKGGIIFASYLLGGYWGQGTQVTVSS", "polyreactivity (PSR sort gate)": "low polyreactivity"},
      {"sequence": "QVQLEESGGGLVQAGGSLRLSCAASGSTFEVYAMGWYRQAPGKERELVAVINVSDGSTYYADSVKGRFTISRDYAKNTVYLQMNSMKPEDTAVYYCADYLYNRPYQLTGYYDGYGYWGQGTQVTVSS", "polyreactivity (PSR sort gate)": "low polyreactivity"},
      {"sequence": "QVQLEESGGGLVQAGGSLRLSCAASGSTFFPYAMGWYRQAPGKERELVAGISSDGGTSYADSVKGRFTISRDTAKNTVYLQMNSLKPEDTAVYYCNARAVNVRDYINYDYWGQGTQVTVSS", "polyreactivity (PSR sort gate)": "low polyreactivity"},
      {"sequence": "QVQLEESGGGLVQAGGSLRLSCAASGSTFGNYAKGWYRQAPGKERELVAAITATGGRTYYADSVKGRFTISRDNAKNTVYLQMNSVKPEDTAVYYCAAGYRTGGDSGDYWGQGTQVTVSS", "polyreactivity (PSR sort gate)": "high polyreactivity"},
      {"sequence": "QVQLEESGGGLVQAGGSLRLSCAASGSTFGPNTMGRYRQAPGKERELVAAISRAGRTYYADSVKGRFTISRDNAKNTVYLQINSLKPEDTAVYYCNAGRSYHWRAGREYDYWGQGTQVTVSS", "polyreactivity (PSR sort gate)": "low polyreactivity"}
    ]}
  ]
}
